Assay results: US20120315271A1 (Pfizer, published 2012)

Target: T1, human nerve growth factor (human, UniProt P01138 122-241, limits assumed)
T1 construct: also called human NGF; hNGF
Test: binding affinity measured with the Fab fragment; method not stated at this place (general BIAcore SPR protocol in paragraph 87); Fab, not IgG
Method: To obtain monofunctional Fab fragments, an antibody (for example, IgG) can be cleaved with papain or expressed recombinantly. […] The concentrations of the Fab proteins are determined by ELISA and/or SDS-PAGE electrophoresis using a Fab of known concentration (as determined by amino acid analysis) as a standard. […] Equilibrium dissociation constant (KD) values are calculated as koff/kₒₙ.

T1 sequence (P01138 122-241 limits assumed): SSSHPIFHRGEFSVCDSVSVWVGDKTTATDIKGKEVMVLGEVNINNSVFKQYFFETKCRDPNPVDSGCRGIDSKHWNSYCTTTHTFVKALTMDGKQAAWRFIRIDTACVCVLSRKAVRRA

B1: Fab fragment of humanized anti-NGF antibody E3 (Fab, V domains shown)
VH: QVQLQESGPGLVKPSETLSLTCTVSGFSLIGYDLNWIRQPPGKGLEWIGIIWGDGTTDYNSAVKSRVTISKDTSKNQFSLKLSSVTAADTAVYYCARGGYWYATSYYFDYWGQGTLVTVS
VL: DIQMTQSPSSLSASVGDRVTITCRASQSISNNLNWYQQKPGKAPKLLIYYTSRFHSGVPSRFSGSGSGTDFTFTISSLQPEDIATYYCQQEHTLPYTFGQGTKLEIK
notes: Full antibody E3 has a human IgG2a heavy chain constant region with A330P331 to S330S331 and a human kappa light chain constant region
  Kd: ~0.07 nM
